Consider five molecules from patent US20160060356A1 (Hoffmann-La Roche, published 2016).

Experiment [1] addresses T1, human Fibroblast Activation Protein (FAP) on cells or in tissue (human, UniProt Q12884 1-760).
T1 construct: whole, on cells; Expressed on stably transfected HEK293 cells, on the human fibroblast cell line GM05389, on human tumor cell lines and in human tumor tissue sections; also called human FAP; hFAP
Briefly: FACS on HEK293 cells stably transfected with human FAP.

The target of experiment [2] is T2, murine Fibroblast Activation Protein (FAP) on stably transfected HEK293 cells (mouse, UniProt P97321 1-761).
T2 construct: whole, on cells; also called murine FAP
Briefly: FACS on HEK293 cells stably transfected with murine FAP.

Experiment [3] deals with T3, human Fibroblast Activation Protein (FAP) ectodomain with C-terminal poly-lysine and 6xHis-tag (human, UniProt Q12884 27-760).
T3 construct: Recombinant soluble antigen used in selections, ELISA and SPR; also called hu FAP; human FAP
Briefly: SPR (Biacore T100), His-tagged FAP captured by anti-His antibody, IgG as analyte (avidity).
Experimental: (§1) For immobilization carboxymethylated dextran biosensor chips (CMS, GE Healthcare) were activated with N-ethyl-N′-(3-dimethylaminopropyl)-carbodiimide hydrochloride (EDC) and N-hydroxysuccinimide (NHS) according to the supplier's instructions. The Penta His antibody was diluted with 10 mM sodium acetate, pH 5, to 40 μg/ml before injection at a flow rate of 10 μl/minute to achieve approximately 9000 response units (RU) of coupled protein. Following the injection of the ligand, 1 M ethanolamine was injected to block unreacted groups.
(§2) For kinetics measurements, human, mouse or Cynomolgus FAP extracellular domain was injected at 10 μl/min at 10 nM for 20 s (for Fab fragments) or at 20 nM for 25 s (for IgG) and was captured via its His tag by the immobilized penta His antibody. […] The following parameters were applied: Association time 180 s, dissociation 300 s (for Fab) or 900 s (for IgG), regeneration with 10 mM glycine pH 2 for 60 s between each cycle. Association rates (kₒₙ) and dissociation rates (koff) were calculated using a simple one-to-one Langmuir binding model (BIACORE® T100 Evaluation Software version 1.1.1) by simultaneously fitting the association and dissociation sensorgrams (model parameters were local Rmax and RI=0). The equilibrium dissociation constant (KD) was calculated as the ratio koff/kₒₙ.

In experiment [4] the target is T4, murine Fibroblast Activation Protein (FAP) ectodomain with C-terminal poly-lysine and 6xHis-tag (mouse, UniProt P97321 27-761).
T4 construct: also called mu FAP; murine FAP
The experiment is described as above.
Experimental: as §1, §2

Experiment [5] deals with T5, Cynomolgus Fibroblast Activation Protein (FAP) ectodomain with C-terminal poly-lysine and 6xHis-tag (cynomolgus monkey, UniProt Q12884 27-760 (human entry)).
T5 construct: also called cyno FAP; Cynomolgus FAP extracellular domain
Described as above.
Experimental: as §1, §2

Experiment [6] deals with T6, HER2 on stably transfected HEK293 cells (UniProt P04626 23-1255, limits assumed).
T6 construct: whole, on cells
Briefly: FACS on HEK293 cells stably expressing HER2, PE goat anti-human IgG Fc gamma detection.

In experiment [7] the target is T7, DPPIV (CD26) on stably transfected HEK293 cells (UniProt P27487 1-766).
T7 construct: whole, on cells; also called dipeptidyl peptidase IV
Briefly: FACS on HEK293 cells stably expressing DPPIV, PE goat anti-human IgG Fc gamma detection.

Experiment [8] concerns the target T3, human Fibroblast Activation Protein …. Briefly: SPR (Biacore T100), His-tagged FAP captured by anti-His antibody, Fab as analyte.
Experimental: as §1, §2
In experiment [9] the target is T4, murine Fibroblast Activation Protein …. The description is as above.
Experimental: as §1, §2
In experiment [10] the target is T5, Cynomolgus Fibroblast Activation …. The experiment is described as above.
Experimental: as §1, §2

B1: 4G8 human IgG1 antibody (antibody, V domains shown)
VH: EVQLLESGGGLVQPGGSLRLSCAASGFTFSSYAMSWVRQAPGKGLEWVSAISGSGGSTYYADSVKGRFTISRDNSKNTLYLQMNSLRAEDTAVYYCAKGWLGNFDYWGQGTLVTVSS
VL: EIVLTQSPGTLSLSPGERATLSCRASQSVSRSYLAWYQQKPGQAPRLLIIGASTRATGIPDRFSGSGSGTDFTLTISRLEPEDFAVYYCQQGQVIPPTFGQGTKVEIK
notes: Wild-type and glycoengineered versions were used in the ADCC assay; also called IgG 4G8; 4G8 IgG
Turning to B1, the EC50 was determined as 5 nM in experiment [1] and 1.7 nM in [2]. In addition, the Kd came out at 0.051 nM in [3], 0.001 nM in [4] and 0.059 nM in experiment [5]. Moreover, the binding result in experiment [6] and in [7] was “no binding (tested: 30 µg/ml)” in each case.

B2: 3F2 human IgG1 antibody (antibody, V domains shown)
VH: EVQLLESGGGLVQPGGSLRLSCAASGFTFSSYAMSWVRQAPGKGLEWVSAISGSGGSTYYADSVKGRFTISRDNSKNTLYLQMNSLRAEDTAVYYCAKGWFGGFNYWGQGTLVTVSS
VL: EIVLTQSPGTLSLSPGERATLSCRASQSVTSSYLAWYQQKPGQAPRLLINVGSRRATGIPDRFSGSGSGTDFTLTISRLEPEDFAVYYCQQGIMLPPTFGQGTKVEIK
notes: Wild-type and glycoengineered versions were used in the ADCC assay; also called IgG 3F2; 3F2 IgG
For B2, the concentration for a half-maximal effect (EC50) in experiment [1] stood at 4.8 nM; in experiment [2], 1 nM. The Kd in experiment [3] worked out at 0.039 nM; in experiment [4], 0.029 nM; in [5], 0.042 nM. The binding result in experiment [6] and in experiment [7] was “no binding (tested: 30 µg/ml)” in each case.

B3: 3F2 Fab fragment (Fab, V domains shown)
VH: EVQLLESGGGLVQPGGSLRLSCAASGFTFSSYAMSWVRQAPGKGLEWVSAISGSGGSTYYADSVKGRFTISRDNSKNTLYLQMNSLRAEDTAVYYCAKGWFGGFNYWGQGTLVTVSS
VL: EIVLTQSPGTLSLSPGERATLSCRASQSVTSSYLAWYQQKPGQAPRLLINVGSRRATGIPDRFSGSGSGTDFTLTISRLEPEDFAVYYCQQGIMLPPTFGQGTKVEIK
notes: also called Fab fragment 3F2; clone 3F2
On to B3, for which the Kd in experiment [8] was determined as 13 nM; in experiment [9], 14 nM; in experiment [10], 11 nM.

B4: 4G8 Fab fragment (Fab, V domains shown)
VH: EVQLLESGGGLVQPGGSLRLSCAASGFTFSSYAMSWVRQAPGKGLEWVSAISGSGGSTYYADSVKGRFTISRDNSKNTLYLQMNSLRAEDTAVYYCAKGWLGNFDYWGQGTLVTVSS
VL: EIVLTQSPGTLSLSPGERATLSCRASQSVSRSYLAWYQQKPGQAPRLLIIGASTRATGIPDRFSGSGSGTDFTLTISRLEPEDFAVYYCQQGQVIPPTFGQGTKVEIK
notes: also called Fab fragment 4G8; clone 4G8
In the case of B4, the Kd is 74 nM in [8], at most 7 nM in [9] and 56 nM in experiment [10].

B5: 4B3 human IgG1 antibody (antibody, V domains shown)
VH: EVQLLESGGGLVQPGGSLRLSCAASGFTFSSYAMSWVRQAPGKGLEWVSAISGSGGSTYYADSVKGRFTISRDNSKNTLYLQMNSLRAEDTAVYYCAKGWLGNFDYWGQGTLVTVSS
VL: EIVLTQSPGTLSLSPGERATLSCRASQSVSSNYLAWYQQKPGQAPRLLIYGAYIRATGIPDRFSGSGSGTDFTLTISRLEPEDFAVYYCQQGQVIPPTFGQGTKVEIK
notes: Human IgG1 format; also called 4B3 IgG
In the case of B5, the values for the 50% effective concentration (EC50) in experiment [1] and in experiment [2] were 5.5 nM and 1.6 nM, respectively. The binding result in [6] and in [7] was “no binding (tested: 30 µg/ml)” each time.

Usually EC50 stands for the concentration giving half of the maximal effect.
